In assay [1] the target is human type III collagen (Millipore Sigma) (human) (UniProt P02461). In words: ELISA on plates coated with collagen III, 0-740 nM A3-IL4.
Assay [2] addresses recombinant mouse IL-4Ra protein (R&D Systems) (mouse) (UniProt P16382). Briefly: ELISA on plates coated with recombinant mouse IL-4Ra (10 µg/mL), 0-740 nM A3-IL4, detected with an antibody against mouse IL-4, A450; Kd from the fitted curve [B].
In assay [3] the target is T1, recombinant mouse FcRn (Acro Biosystems) (mouse, UniProt Q61559 22-297; P01887 21-119).
T1 construct: also called neonatal Fc receptor; murine FcRn recombinant protein
T1 sequence (looked up) 1: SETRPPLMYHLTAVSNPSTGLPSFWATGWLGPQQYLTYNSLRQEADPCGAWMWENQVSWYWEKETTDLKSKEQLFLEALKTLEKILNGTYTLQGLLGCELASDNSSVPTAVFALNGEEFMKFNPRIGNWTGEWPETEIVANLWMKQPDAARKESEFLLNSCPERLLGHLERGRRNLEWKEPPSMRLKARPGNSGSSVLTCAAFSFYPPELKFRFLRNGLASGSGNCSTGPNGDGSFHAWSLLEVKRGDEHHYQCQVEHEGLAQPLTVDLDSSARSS
T1 sequence (looked up) 2: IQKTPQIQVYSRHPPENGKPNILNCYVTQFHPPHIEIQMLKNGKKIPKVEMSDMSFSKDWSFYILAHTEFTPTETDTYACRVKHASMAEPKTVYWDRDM
In words: SPR (Biacore X100), mouse FcRn immobilised on a C1 chip, CBD-SA-IL-10 flowed at pH 5.8, 1:1 Langmuir fit. As for the experimental part:
(§1) SPR measurements were carried out with Biacore X100 instrument. In collagen binding experiments, recombinant human type I or type III collagen (Millipore Sigma) were immobilized on a CMS sensor chip by standard amine coupling method (˜1500 resonance units (RUs)) and blocked with ethanolamine. […] In FcRn binding experiments, recombinant mouse FcRn (Acro Biosystems) was immobilized via amine coupling on a C1 chip (GE Healthcare) for ˜200 RU according to the manufacturer's instructions. […] The sensor chip was regenerated with PBS, pH 7.4 for every cycle.

Assay [4] addresses T2, human type I collagen (Millipore Sigma) (human, UniProt P02452 162-1218; P08123 80-1119).
T2 construct: treated as one molecule; also called collagen type I
Briefly: SPR (Biacore X100), human type I collagen immobilised by amine coupling, CBD-SA-IL-10 flowed, 1:1 Langmuir fit. As for the experimental part: as §1

Assay [5] concerns the target T3, human type III collagen (Millipore Sigma) (human, UniProt P02461 154-1221).
T3 construct: treated as one molecule; also called collagen type III; collagen III
T3 sequence (looked up): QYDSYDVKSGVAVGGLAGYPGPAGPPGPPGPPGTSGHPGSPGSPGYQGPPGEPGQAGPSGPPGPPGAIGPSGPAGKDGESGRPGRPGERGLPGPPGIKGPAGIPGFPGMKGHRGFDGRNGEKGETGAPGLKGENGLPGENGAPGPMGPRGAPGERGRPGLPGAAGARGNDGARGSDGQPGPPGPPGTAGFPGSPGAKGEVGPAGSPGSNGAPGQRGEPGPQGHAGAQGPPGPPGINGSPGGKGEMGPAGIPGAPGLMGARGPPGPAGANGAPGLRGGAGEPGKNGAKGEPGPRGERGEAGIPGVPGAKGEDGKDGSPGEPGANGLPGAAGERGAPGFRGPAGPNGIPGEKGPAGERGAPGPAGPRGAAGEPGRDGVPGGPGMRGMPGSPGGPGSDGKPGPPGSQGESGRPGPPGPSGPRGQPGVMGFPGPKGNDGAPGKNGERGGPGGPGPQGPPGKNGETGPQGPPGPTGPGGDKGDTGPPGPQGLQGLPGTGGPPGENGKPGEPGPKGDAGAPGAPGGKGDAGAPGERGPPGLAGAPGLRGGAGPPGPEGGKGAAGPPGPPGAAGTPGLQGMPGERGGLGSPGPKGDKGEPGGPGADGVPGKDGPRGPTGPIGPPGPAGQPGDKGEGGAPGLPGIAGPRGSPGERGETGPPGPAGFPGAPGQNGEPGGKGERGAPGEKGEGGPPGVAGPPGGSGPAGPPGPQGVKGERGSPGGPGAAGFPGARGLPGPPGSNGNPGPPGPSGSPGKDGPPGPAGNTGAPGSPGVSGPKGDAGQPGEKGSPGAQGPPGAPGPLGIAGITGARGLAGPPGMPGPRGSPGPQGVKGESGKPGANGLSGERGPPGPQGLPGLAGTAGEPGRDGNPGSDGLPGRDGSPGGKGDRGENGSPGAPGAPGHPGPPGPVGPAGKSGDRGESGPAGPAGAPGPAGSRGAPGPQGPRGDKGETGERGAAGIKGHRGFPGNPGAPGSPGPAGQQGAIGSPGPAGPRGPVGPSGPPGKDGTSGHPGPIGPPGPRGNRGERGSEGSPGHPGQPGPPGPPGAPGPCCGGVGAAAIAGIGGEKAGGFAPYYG
Briefly: SPR (Biacore X100), human type III collagen immobilised by amine coupling, CBD-SA-IL-10 flowed, 1:1 Langmuir fit. As for the experimental part:
as §1

T2 sequence (P02452 162-1218, chain 1 of 2): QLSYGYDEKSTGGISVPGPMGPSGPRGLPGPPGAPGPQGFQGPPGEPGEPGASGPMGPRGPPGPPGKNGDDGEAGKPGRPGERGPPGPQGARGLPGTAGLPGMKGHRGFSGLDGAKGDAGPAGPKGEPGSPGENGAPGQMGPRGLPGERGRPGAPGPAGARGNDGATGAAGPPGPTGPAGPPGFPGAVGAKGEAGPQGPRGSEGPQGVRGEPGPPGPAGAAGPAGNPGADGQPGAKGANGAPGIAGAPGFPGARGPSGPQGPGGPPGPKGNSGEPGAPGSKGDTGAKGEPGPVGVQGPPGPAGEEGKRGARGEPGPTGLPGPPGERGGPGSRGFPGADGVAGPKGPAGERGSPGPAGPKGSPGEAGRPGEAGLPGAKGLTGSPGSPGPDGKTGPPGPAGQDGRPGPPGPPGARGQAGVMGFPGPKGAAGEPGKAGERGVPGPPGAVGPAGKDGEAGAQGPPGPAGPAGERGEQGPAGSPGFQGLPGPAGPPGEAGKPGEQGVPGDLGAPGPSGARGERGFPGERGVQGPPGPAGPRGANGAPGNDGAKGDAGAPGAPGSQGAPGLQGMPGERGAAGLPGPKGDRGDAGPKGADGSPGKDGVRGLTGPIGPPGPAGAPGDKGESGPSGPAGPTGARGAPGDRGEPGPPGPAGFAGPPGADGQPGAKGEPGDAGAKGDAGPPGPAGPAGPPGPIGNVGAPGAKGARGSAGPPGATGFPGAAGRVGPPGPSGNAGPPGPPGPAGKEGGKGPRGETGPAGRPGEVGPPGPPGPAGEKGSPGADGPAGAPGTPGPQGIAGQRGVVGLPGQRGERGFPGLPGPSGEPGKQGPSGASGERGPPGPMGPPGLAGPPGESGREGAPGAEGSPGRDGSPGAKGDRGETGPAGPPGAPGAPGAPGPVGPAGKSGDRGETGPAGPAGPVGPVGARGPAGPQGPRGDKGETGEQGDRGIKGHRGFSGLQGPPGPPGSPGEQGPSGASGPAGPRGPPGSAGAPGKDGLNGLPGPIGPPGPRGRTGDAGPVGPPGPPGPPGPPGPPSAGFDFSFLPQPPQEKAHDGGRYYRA
T2 sequence (P08123 80-1119, chain 2 of 2): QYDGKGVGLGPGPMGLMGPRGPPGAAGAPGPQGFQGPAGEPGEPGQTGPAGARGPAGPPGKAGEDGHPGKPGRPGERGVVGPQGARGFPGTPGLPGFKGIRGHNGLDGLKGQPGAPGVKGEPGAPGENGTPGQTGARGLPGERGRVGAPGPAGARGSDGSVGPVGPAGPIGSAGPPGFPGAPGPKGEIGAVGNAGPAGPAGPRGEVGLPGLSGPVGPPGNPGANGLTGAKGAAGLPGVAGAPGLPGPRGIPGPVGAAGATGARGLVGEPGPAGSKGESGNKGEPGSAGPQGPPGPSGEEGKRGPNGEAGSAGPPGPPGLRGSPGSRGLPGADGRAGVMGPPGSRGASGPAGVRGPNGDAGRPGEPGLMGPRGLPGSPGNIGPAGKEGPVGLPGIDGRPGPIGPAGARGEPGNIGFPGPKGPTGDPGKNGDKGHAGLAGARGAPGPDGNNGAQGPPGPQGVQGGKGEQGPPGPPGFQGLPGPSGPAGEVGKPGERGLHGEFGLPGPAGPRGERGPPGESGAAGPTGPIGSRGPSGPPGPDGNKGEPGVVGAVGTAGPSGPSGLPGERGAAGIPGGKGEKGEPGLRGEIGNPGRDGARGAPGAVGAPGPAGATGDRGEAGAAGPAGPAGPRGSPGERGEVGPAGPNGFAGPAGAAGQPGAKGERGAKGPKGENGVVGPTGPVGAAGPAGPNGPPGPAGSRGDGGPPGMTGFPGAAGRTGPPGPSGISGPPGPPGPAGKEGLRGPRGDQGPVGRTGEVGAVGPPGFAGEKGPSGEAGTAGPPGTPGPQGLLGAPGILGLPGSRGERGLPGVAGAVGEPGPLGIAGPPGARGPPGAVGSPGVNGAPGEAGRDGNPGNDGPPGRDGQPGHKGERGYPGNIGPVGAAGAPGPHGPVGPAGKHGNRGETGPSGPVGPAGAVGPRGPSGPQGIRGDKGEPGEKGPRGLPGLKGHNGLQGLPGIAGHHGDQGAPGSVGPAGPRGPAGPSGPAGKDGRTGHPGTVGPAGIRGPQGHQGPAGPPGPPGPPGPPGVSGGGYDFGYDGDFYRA
Sequence of recombinant mouse IL-4Ra protein (R&D Systems) (mouse) (P16382 26-233 limits assumed): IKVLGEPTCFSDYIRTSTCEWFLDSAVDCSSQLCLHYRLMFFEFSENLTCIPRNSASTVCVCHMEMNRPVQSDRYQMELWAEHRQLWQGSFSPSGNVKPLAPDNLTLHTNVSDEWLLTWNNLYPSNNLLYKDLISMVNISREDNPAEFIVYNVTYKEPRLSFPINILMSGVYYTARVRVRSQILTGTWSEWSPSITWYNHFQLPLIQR

For “vWF A3 domain-fused IL-4 (human vWF A3 domain and mouse IL-4 fusion protein)”, the Kd in assay [1] was 28.6 nM; in assay [2] it was 100 nM.

B1: Human VWF A3 domain (CBD), mouse serum albumin and mouse IL-10 fusion protein (other)
chain: CSQPLDVVLLLDGSSSLPESSFDKMKSFAKAFISKANIGPHLTQVSVIQYGSINTIDVPWNVVQEKAHLQSLVDLMQQEGGPSQIGDALAFAVRYVTSQIHGARPGASKAVVIIIMDTSLDPVDTAADAARSNRVAVFPVGVGDRYDEAQLRILAGPGASSNVVKLQQVEDLSTMATLGNSFFHKLCSGFSGVGGGSGGGSEAHKSEIAHRYNDLGEQHFKGLVLIAFSQYLQKCSYDEHAKLVQEVTDFAKTCVADESAANCDKSLHTLFGDKLCAIPNLRENYGELADCCTKQEPERNECFLQHKDDNPSLPPFERPEAEAMCTSFKENPTTFMGHYLHEVARRHPYFYAPELLYYAEQYNEILTQCCAEADKESCLTPKLDGVKEKALVSSVRQRMKCSSMQKFGERAFKAWAVARLSQTFPNADFAEITKLATDLTKVNKECCHGDLLECADDRAELAKYMCENQATISSKLQTCCDKPLLKKAHCLSEVEHDTMPADLPAIAADFVEDQEVCKNYAEAKDVFLGTFLYEYSRRHPDYSVSLLLRLAKKYEATLEKCCAEANPPACYGTVLAEFQPLVEEPKNLVKTNCDLYEKLGEYGFQNAILVRYTQKAPQVSTPTLVEAARNLGRVGTKCCTLPEDQRLPCVEDYLSAILNRVCLLHEKTPVSEHVTKCCSGSLVERRPCFSALTVDETYVPKEFKAETFTFHSDICTLPEKEKQIKKQTALAELVKHKPKATAEQLKTVMDDFAQFLDTCCKAADKDTCFSTEGPNLVTRCKDALAGGGSGGGSSRGQYSREDNNCTHFPVGQSHMLLELRTAFSQVKTFFQTKDQLDNILLTDSLMQDFKGYLGCQALSEMIQFYLVEVMPQAEKHGPEIKEHLNSLGEKLKTLRMRLRRCHRFLPCENKSKAVEQVKSDFNKLQDQGVYKAMNEFDIFINCIEAYMMIKMKSHHHHHH
notes: also called CBD-SA-IL-10; CBD-SA-fused IL-10
As to B1, in assay [3], the dissociation constant (Kd) is 1600 nM, the koff came to 0.0084 s⁻¹ and the kon came out at 5210 M⁻¹ s⁻¹. Also, in assay [4], the Kd turned out to be 12.4 nM and the koff was found to be 0.0034 s⁻¹. Further, in assay [5], the affinity, expressed as Kd, was 8 nM and the koff was 0.0026 s⁻¹.

The values are drawn from US20220118089A1 (UNIVERSITY OF CHICAGO, published 2022).
